From PMC4289617

These substances were tested against WDR5Δ23 (WD repeat domain 5, residues 24–334) (human) (UniProt P61964) (assay: fluorescence polarisation).

Going from “Ac-2mer (Ac-3mer without Ala3) (peptide)” to Ac-3mer (Ac-ARA-NH2) (peptide), the IC50 falls from 125 µM to 0.54 µM (230-fold). The second is the more potent here.

First: Ac-H3-3mer (Ac-ART-NH2) (peptide)
Second: CHO-3mer (CHO-ARA-NH2) (peptide)
The IC50 of the first is 190-fold lower: 0.08 µM for the first, 14.9 µM for the second.

Compared with H2N-3mer (H2N-ARA-NH2) (peptide), H3-3mer (H2N-ART-NH2) (peptide) is lower in IC50: over 300 µM for the first, 127 µM for the second.

Compared with Δ1 (Ac-AR-(N-Me)A-NH2) (peptide), Δ2a (Ac-ARA-CONHMe) (peptide) is lower in IC50: over 300 µM for the first, 0.7 µM for the second. The second is the more potent here.

Compared with Δ2b (Ac-ARA-CONMe2) (peptide), Δ2c (Ac-ARA-COOCH3) (peptide) is 4.1-fold lower in IC50: 30 µM for the first, 7.3 µM for the second. The second is the more potent here.

First: Ac-2mer (Ac-3mer without Ala3) (peptide)
Second: Ac-3mer (Ac-ARA-NH2) (peptide)
The Ki of the first is 220-fold higher: 27 µM for the first, 0.12 µM for the second.

Compared with Ac-H3-3mer (Ac-ART-NH2) (peptide), CHO-3mer (CHO-ARA-NH2) (peptide) is 160-fold higher in Ki: 0.02 µM for the first, 3.2 µM for the second. The first binds more tightly here.

Going from H2N-3mer (H2N-ARA-NH2) (peptide) to H3-3mer (H2N-ART-NH2) (peptide), the Ki falls from over 50 µM to 27.3 µM. The second binds more tightly here.

First: Δ1 (Ac-AR-(N-Me)A-NH2) (peptide)
Second: Δ2a (Ac-ARA-CONHMe) (peptide)
The Ki of the first is higher: over 50 µM for the first, 0.15 µM for the second.

First: Δ2b (Ac-ARA-CONMe2) (peptide)
Second: Δ2c (Ac-ARA-COOCH3) (peptide)
The Ki of the first is 4.1-fold higher: 6.5 µM for the first, 1.6 µM for the second. The second binds more tightly here.
